T1: Cyt18 (mitochondrial tyrosyl-tRNA synthetase, CYT-18) (Neurospora crassa, UniProt P12063 P12063:33-669)
T1 sequence: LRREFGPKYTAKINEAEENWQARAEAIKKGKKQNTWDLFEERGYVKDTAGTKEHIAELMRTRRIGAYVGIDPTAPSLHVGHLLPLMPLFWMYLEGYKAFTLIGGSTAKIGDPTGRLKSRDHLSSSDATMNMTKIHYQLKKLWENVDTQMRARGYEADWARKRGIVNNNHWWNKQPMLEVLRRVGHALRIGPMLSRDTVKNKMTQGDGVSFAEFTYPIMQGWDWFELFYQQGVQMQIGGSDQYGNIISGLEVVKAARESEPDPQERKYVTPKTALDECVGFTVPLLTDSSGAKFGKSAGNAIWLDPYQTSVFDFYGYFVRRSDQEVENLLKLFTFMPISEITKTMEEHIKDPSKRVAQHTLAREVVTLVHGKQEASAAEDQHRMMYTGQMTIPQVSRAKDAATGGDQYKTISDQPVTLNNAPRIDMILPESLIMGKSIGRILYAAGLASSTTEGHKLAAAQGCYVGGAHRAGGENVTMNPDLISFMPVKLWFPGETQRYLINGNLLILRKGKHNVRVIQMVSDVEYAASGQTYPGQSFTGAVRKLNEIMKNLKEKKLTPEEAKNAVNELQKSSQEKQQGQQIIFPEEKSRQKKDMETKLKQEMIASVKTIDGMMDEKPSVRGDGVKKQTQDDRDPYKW

B1: c1 (ssRNA)
RNA: GGGAAUGGAUCCACAUCUACGAAUUCAUCAGGGCUAAAGAGUGCAGAGUUACUUAGUUCACUCCAGACUUGACGAAGCUU
B2: M12 (ssRNA)
RNA: GGGAAUGGAUCCACAUCUACGAAUUCGAGUCGAGAACUGGUGCGAAUGCGAGUAAGUUCACUCCAGACUUGACGAAGCUU
B3: B17 (ssRNA)
RNA: GGGAAUGGAUCCACAUCUACGAAUUCGUAGCGUAGAGUAUGAGAGAGCCAAGGUCAGGUUCACUCCAGACUUGACGAAGCUU
B4: ND1 group I intron (ssRNA)
RNA: GACUAAUAUGAUUUGGUCUCAUUAAAGAUCACAAAUUGCUGGAAACUCCUUUGAGGCUAGGACAAUCAGCAAGGAAGUUAACAUAUAAUGUUAAAACCUUCAGAGACUAGACGUGAUCAUUUAAUAGACGCCUUGCGGCUCUUAUUAGAUAAGGUAUAGUCCAAAUUUGUAUGUAAAUACAAAAUGAUAAAAAAAAAUGAAAUCAUAUGGG

What was measured:
[1] = molecular target: T2, hen egg white lysozyme (UniProt P00698 P00698:19-147); assay: competition
Description: (§1) Ligation assays. In one example, 10 pmol of [³²P]-body-labeled ribozyme and 20 pmol effector oligonucleotide were denatured for 3 min at 70° C. in 5 μl water. The RNA mixture was cooled to room temperature followed by addition of ligation buffer and target protein (20 pmol unless otherwise stated, or water in place of ligand, in the case of […]). After a 5 min equilibration at room temperature, reactions were initiated by the addition of 20 pmol substrate oligonucleotide (S28A) in a final volume of 15 μl. Reactions were incubated at 25° C., and 4 μl aliquots were removed at three appropriate time points and terminated by the addition of 18 μl of SDS stop mix (100 mM EDTA, 80% formamide, 0.8% SDS, 0.05% bromophenol blue, 0.05% xylene cyanol). Samples were denatured for 3 min at 70° C., ligated and unligated species were separated from one another on 8% polyacrylamide gels containing 0.1% SDS, and the amounts of products formed were determined using a Phosphorimager (Molecular Dynamics, Sunnyvale, Calif.). Assays performed over a broad range of protein concentrations (e.g, FIG. 21) differed from typical reaction conditions in that only 1 pmol ribozyme was present in a 10 μl final volume.
(§2) Competition assays. Ligation assays were performed as described above, using 10 pmol of [³²P]-body-labeled ribozyme (cyt7-2 or lys11-2; […]) and 20 pmol effector oligonucleotide (2 μM). The denatured and annealed RNA mixture was combined with ligation buffer, 20 pmol protein (Cyt18, lysozyme, or water in the case of (−) protein samples; 2 μM), and 30 pmol of denatured and annealed competitor RNA (3 μM).

[2] = molecular target: T1, Cyt18 (mitochondrial tyrosyl-tRNA …); assay: competition; conditions: chain copies: 2
Description: as §1, §2

[3] = molecular target: T1, Cyt18 (mitochondrial tyrosyl-tRNA …); assay: competition; greatest reduction of Cyt18 activation of cyt7-2; 3 uM competitor; conditions: chain copies: 2
Description: as §1
(§3) Competition assays. Ligation assays were performed as described above, using 10 pmol of [³²P]-body-labeled ribozyme (cyt7-2 or lys11-2; […]) and 20 pmol effector oligonucleotide (2 μM). […]

[4] = molecular target: T2, hen egg white lysozyme; assay: competition; no appreciable inhibition of lys11-2 activation
Description: as §1, §3

Row | Binder | binding result [1] | binding result [2] | binding result [3] | binding result [4]
1 | B1 | binds | – | – | –
2 | B2 | no binding | binds | – | –
3 | B3 | no binding | – | – | –
4 | B4 | – | – | binds | no binding
